Reference: publication PMC4551902, “Aquaporins Mediate Silicon Transport in Humans” (PLoS ONE, 2015)

Assays:
AQP9 = molecular target: T1, AQP9 (Homo sapiens, UniProt O43315); assay: Si influx and osmotic water transport in oocytes; format: cell-based; conditions: 0.1 mM phloretin; Si influx: B2a hypoosmolar medium, 2 mM H4SiO4, 30 min; water transport: ~10 mM sucrose, 20 s
T1 construct: full-length human cDNA in Pol1 vector, untagged, expressed in Xenopus laevis oocytes
T1 sequence (O43315 1-295): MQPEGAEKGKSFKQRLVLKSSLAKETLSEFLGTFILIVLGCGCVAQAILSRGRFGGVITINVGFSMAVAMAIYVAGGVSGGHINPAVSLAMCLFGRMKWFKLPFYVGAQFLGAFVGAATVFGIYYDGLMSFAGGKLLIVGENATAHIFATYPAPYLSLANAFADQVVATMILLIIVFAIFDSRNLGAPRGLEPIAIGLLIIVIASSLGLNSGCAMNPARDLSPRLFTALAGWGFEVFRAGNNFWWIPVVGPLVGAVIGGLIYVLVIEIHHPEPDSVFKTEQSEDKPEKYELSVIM

lsi1 = molecular target: T2, lsi1 (Oryza sativa, UniProt Q6Z2T3); assay: 68Ge influx into oocytes, liquid scintillation counting; format: cell-based; conditions: 2 mM H4GeO4 with 68Ge tracer, B1 medium, pH 7.4, 90 min; labelled compound
T2 construct: gene NIP2-1; expressed in Xenopus laevis oocytes
T2 sequence (Q6Z2T3 1-298): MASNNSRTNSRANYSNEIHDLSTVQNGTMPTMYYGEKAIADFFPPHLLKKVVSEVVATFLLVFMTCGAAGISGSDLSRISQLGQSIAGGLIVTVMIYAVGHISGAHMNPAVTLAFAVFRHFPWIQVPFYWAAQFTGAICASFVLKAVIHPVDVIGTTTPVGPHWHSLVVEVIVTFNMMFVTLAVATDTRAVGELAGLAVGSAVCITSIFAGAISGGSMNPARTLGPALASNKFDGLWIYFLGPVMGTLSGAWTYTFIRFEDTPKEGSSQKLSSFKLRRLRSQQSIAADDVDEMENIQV

[1] = substrate: O[Si](O)(O)O; assay: cells, lysate or membranes; conditions: B1 medium, 4-parameter logistic fit

`O=C(CCc1ccc(O)cc1)c1c(O)cc(O)cc1O` [phloretin] was tested. Which “effect on Si influx and water transport at 0.1 mM” value (AQP9) did it give?
The value was “Si transport by AQP9 is seen to be stimulated by the water transport inhibitor phloretin”.

Which “68Ge influx into oocytes, liquid scintillation counting” value (lsi1) does the source give for `[OH][Ge]([OH])([OH])[OH]` [H4GeO4] here?
The value was “significantly different relative to background, between channels (for a given substrate)”.

B1: AQP9 (Homo sapiens) (protein)
chain: MQPEGAEKGKSFKQRLVLKSSLAKETLSEFLGTFILIVLGCGCVAQAILSRGRFGGVITINVGFSMAVAMAIYVAGGVSGGHINPAVSLAMCLFGRMKWFKLPFYVGAQFLGAFVGAATVFGIYYDGLMSFAGGKLLIVGENATAHIFATYPAPYLSLANAFADQVVATMILLIIVFAIFDSRNLGAPRGLEPIAIGLLIIVIASSLGLNSGCAMNPARDLSPRLFTALAGWGFEVFRAGNNFWWIPVVGPLVGAVIGGLIYVLVIEIHHPEPDSVFKTEQSEDKPEKYELSVIM
Which K0.5 ([1]; pH 7.4, 0-2 mM H4SiO4, 30 min) does the source give for B1 here?
Its K0.5 is 117 µM.

B2: AQP7 (Homo sapiens) (protein)
chain: MVQASGHRRSTRGSKMVSWSVIAKIQEILQRKMVREFLAEFMSTYVMMVFGLGSVAHMVLNKKYGSYLGVNLGFGFGVTMGVHVAGRISGAHMNAAVTFANCALGRVPWRKFPVYVLGQFLGSFLAAATIYSLFYTAILHFSGGQLMVTGPVATAGIFATYLPDHMTLWRGFLNEAWLTGMLQLCLFAITDQENNPALPGTEALVIGILVVIIGVSLGMNTGYAINPSRDLPPRIFTFIAGWGKQVFSNGENWWWVPVVAPLLGAYLGGIIYLVFIGSTIPREPLKLEDSVAYEDHGITVLPKMGSHEPTISPLTPVSVSPANRSSVHPAPPLHESMALEHF
With B2 as the molecule, how does the K0.5 ([1]; pH 7.4, 0-2 mM H4SiO4 (value above tested range), 90 min) read?
Its K0.5 is 2300 µM.

B3: AQP10 (Homo sapiens) (protein)
chain: MVFTQAPAEIMGHLRIRSLLARQCLAEFLGVFVLMLLTQGAVAQAVTSGETKGNFFTMFLAGSLAVTIAIYVGGNVSGAHLNPAFSLAMCIVGRLPWVKLPIYILVQLLSAFCASGATYVLYHDALQNYTGGNLTVTGPKETASIFATYPAPYLSLNNGFLDQVLGTGMLIVGLLAILDRRNKGVPAGLEPVVVGMLILALGLSMGANCGIPLNPARDLGPRLFTYVAGWGPEVFSAGNGWWWVPVVAPLVGATVGTATYQLLVALHHPEGPEPAQDLVSAQHKASELETPASAQMLECKL
How did the K0.5 ([1]; pH 7.4, 0-2 mM H4SiO4, 60 min) turn out when B3 was run?
Its K0.5 is 470 µM.
